Results reported in patent US20140348865A1, “[…] ON AN HIV-1 V1V2 SITE-OF-VULNERABILITY” (The United States of America, as represented by the …, priority 2011, published 2014).

Key:
[1] = biological target: 1FD6 ZM109 scaffold N130D; assay: ELISA
[2] = biological target: 1FD6 ZM109 scaffold N192D; assay: ELISA
[3] = biological target: 1FD6 ZM109 scaffold N160Q; assay: ELISA
[4] = biological target: 1FD6 ZM109 scaffold N173D; assay: ELISA
1FD6-ZM109 V1V2 scaffold = assay: ELISA
[5] = biological target: 1FD6 ZM109 scaffold N189D; assay: ELISA
[6] = biological target: 1FD6 ZM109 scaffold N138D; assay: ELISA
[7] = biological target: 1FD6 CAP45 scaffold N143D; assay: ELISA, supernatant on His grab plates
[8] = biological target: 1FD6 CAP45 scaffold N147D; assay: ELISA, supernatant on His grab plates
[9] = biological target: 1FD6 CAP45 scaffold N160Q; assay: ELISA, supernatant on His grab plates
[10] = biological target: 1FD6 CAP45 scaffold N156D; assay: ELISA, supernatant on His grab plates
[11] = biological target: 1FD6 CAP45 scaffold N192D; assay: ELISA, supernatant on His grab plates
[12] = biological target: Env of HIV-1 strain RHPA (pseudovirus) (HIV-1)
[13] = biological target: Env of HIV-1 strain CNE4 (pseudovirus) (HIV-1)
[14] = biological target: Env of HIV-1 strain JRFL (pseudovirus) (HIV-1)
[15] = biological target: Env of HIV-1 strain BG 1168 (pseudovirus) (HIV-1)
[16] = biological target: Env of HIV-1 strain QH0515 (pseudovirus) (HIV-1)
[17] = biological target: Env of HIV-1 strain 7165.18 (pseudovirus) (HIV-1)
[18] = biological target: Env of HIV-1 strain T251-18 (pseudovirus) (HIV-1)
[19] = biological target: 1FD6 CAP45 scaffold N143D/N147D/N192D; assay: ELISA on His-captured supernatant
monomeric gp120 = assay: ELISA or SPR against neutralization

## monoclonal antibody PG9
[1]
  EC50: 0.4 µg/mL
[2]
  EC50: 0.1 µg/mL
[3]
  EC50: > 50 µg/mL
[4]
  EC50: 7 µg/mL
1FD6-ZM109 V1V2 scaffold
  EC50: 0.1 µg/mL
[5]
  EC50: 0.1 µg/mL
[6]
  EC50: 0.2 µg/mL
[7]
  EC50: 0.1 µg/mL
[8]
  EC50: 0.1 µg/mL
[9]
  EC50: > 50 µg/mL
[10]
  EC50: 4.9 µg/mL
[11]
  EC50: 0.2 µg/mL
CAAN.A2 (HIV-1)
  neutralization IC80: > 50 µg/mL
ADA.DG (HIV-1)
  neutralization IC80: > 50 µg/mL
BX08_16 (HIV-1)
  neutralization IC80: 0.273 µg/mL
CNE10 (HIV-1)
  neutralization IC80: 1.61 µg/mL
BaL.26 (HIV-1)
  neutralization IC80: 0.365 µg/mL
T253-11 (HIV-1)
  neutralization IC80: 1.72 µg/mL
TRO.11 (HIV-1)
  neutralization IC80: > 50 µg/mL
HO86.8 (HIV-1)
  neutralization IC80: 0.125 µg/mL
Bal.01 (HIV-1)
  neutralization IC80: 1.52 µg/mL
T280-5 (HIV-1)
  neutralization IC80: 1.94 µg/mL
CH070.1 (HIV-1)
  neutralization IC80: 0.024 µg/mL
CNE57 (HIV-1)
  neutralization IC80: > 50 µg/mL
PVO.04 (HIV-1)
  neutralization IC80: 37.1 µg/mL
[12]
  neutralization IC80: > 50 µg/mL
[13]
  neutralization IC80: > 50 µg/mL
[14]
  neutralization IC80: > 50 µg/mL
[15]
  neutralization IC80: > 50 µg/mL
THRO.18 (HIV-1)
  neutralization IC80: > 50 µg/mL
JRCSF.JB (HIV-1)
  neutralization IC80: 0.009 µg/mL
T250-4 (HIV-1)
  neutralization IC80: 0.001 µg/mL
YU2.DG (HIV-1)
  neutralization IC80: > 50 µg/mL
AC10.29 (HIV-1)
  neutralization IC80: 0.306 µg/mL
TRJO.58 (HIV-1)
  neutralization IC80: 3.22 µg/mL
WITO.33 (HIV-1)
  neutralization IC80: 0.03 µg/mL
T33-7 (HIV-1)
  neutralization IC80: 0.087 µg/mL
MN.3 (HIV-1)
  neutralization IC80: > 50 µg/mL
[16]
  neutralization IC80: > 50 µg/mL
QH0692.42 (HIV-1)
  neutralization IC80: > 50 µg/mL
89.6.DG (HIV-1)
  neutralization IC80: > 50 µg/mL
SC422.8 (HIV-1)
  neutralization IC80: 38.6 µg/mL
T255-34 (HIV-1)
  neutralization IC80: 0.114 µg/mL
T266-60 (HIV-1)
  neutralization IC80: > 50 µg/mL
BR07.DG (HIV-1)
  neutralization IC80: > 50 µg/mL
SS1196.01 (HIV-1)
  neutralization IC80: 3.08 µg/mL
T278-50 (HIV-1)
  neutralization IC80: 6.06 µg/mL
BL01.DG (HIV-1)
  neutralization IC80: > 50 µg/mL
CNE14 (HIV-1)
  neutralization IC80: > 50 µg/mL
HT593.1 (HIV-1)
  neutralization IC80: 5.41 µg/mL
CNE12 (HIV-1)
  neutralization IC80: > 50 µg/mL
REJO.67 (HIV-1)
  neutralization IC80: 0.08 µg/mL
[17]
  neutralization IC80: > 50 µg/mL
DJ263.8 (HIV-1)
  neutralization IC80: 0.733 µg/mL
T257-31 (HIV-1)
  neutralization IC80: 0.075 µg/mL
CH038.12 (HIV-1)
  neutralization IC80: > 50 µg/mL
SF162.LS (HIV-1)
  neutralization IC80: > 50 µg/mL
HXB2.DG (HIV-1)
  neutralization IC80: 10.2 µg/mL
[18]
  neutralization IC80: > 50 µg/mL
[19]
  EC50: 0.1 µg/mL
Monomeric gp120
  fold weaker affinity for monomeric gp120 than for the viral spike: > 10 fold

## monoclonal antibody PG16
[1]
  EC50: 1.5 µg/mL
[2]
  EC50: 2.5 µg/mL
[3]
  EC50: > 50 µg/mL
[4]
  EC50: > 50 µg/mL
1FD6-ZM109 V1V2 scaffold
  EC50: 3.4 µg/mL
[5]
  EC50: 4 µg/mL
[6]
  EC50: 4.4 µg/mL
[7]
  EC50: 3.3 µg/mL
[8]
  EC50: 0.7 µg/mL
[9]
  EC50: > 50 µg/mL
[10]
  EC50: > 50 µg/mL
[11]
  EC50: 27 µg/mL
CAAN.A2 (HIV-1)
  neutralization IC80: > 50 µg/mL
ADA.DG (HIV-1)
  neutralization IC80: 0.458 µg/mL
BX08_16 (HIV-1)
  neutralization IC80: 38.8 µg/mL
CNE10 (HIV-1)
  neutralization IC80: > 50 µg/mL
BaL.26 (HIV-1)
  neutralization IC80: > 50 µg/mL
T253-11 (HIV-1)
  neutralization IC80: > 50 µg/mL
TRO.11 (HIV-1)
  neutralization IC80: > 50 µg/mL
HO86.8 (HIV-1)
  neutralization IC80: 0.02 µg/mL
Bal.01 (HIV-1)
  neutralization IC80: > 50 µg/mL
T280-5 (HIV-1)
  neutralization IC80: 4.53 µg/mL
CH070.1 (HIV-1)
  neutralization IC80: 0.013 µg/mL
CNE57 (HIV-1)
  neutralization IC80: > 50 µg/mL
PVO.04 (HIV-1)
  neutralization IC80: > 50 µg/mL
[12]
  neutralization IC80: > 50 µg/mL
[13]
  neutralization IC80: > 50 µg/mL
[14]
  neutralization IC80: > 50 µg/mL
[15]
  neutralization IC80: > 50 µg/mL
THRO.18 (HIV-1)
  neutralization IC80: > 50 µg/mL
JRCSF.JB (HIV-1)
  neutralization IC80: 0.015 µg/mL
T250-4 (HIV-1)
  neutralization IC80: 0.001 µg/mL
YU2.DG (HIV-1)
  neutralization IC80: > 50 µg/mL
AC10.29 (HIV-1)
  neutralization IC80: 0.088 µg/mL
TRJO.58 (HIV-1)
  neutralization IC80: 13.9 µg/mL
WITO.33 (HIV-1)
  neutralization IC80: < 0.023 µg/mL
T33-7 (HIV-1)
  neutralization IC80: 0.279 µg/mL
MN.3 (HIV-1)
  neutralization IC80: > 50 µg/mL
[16]
  neutralization IC80: > 50 µg/mL
QH0692.42 (HIV-1)
  neutralization IC80: > 50 µg/mL
89.6.DG (HIV-1)
  neutralization IC80: > 50 µg/mL
SC422.8 (HIV-1)
  neutralization IC80: > 50 µg/mL
T255-34 (HIV-1)
  neutralization IC80: 0.079 µg/mL
T266-60 (HIV-1)
  neutralization IC80: > 50 µg/mL
BR07.DG (HIV-1)
  neutralization IC80: > 50 µg/mL
SS1196.01 (HIV-1)
  neutralization IC80: 2.9 µg/mL
T278-50 (HIV-1)
  neutralization IC80: > 50 µg/mL
BL01.DG (HIV-1)
  neutralization IC80: > 50 µg/mL
CNE14 (HIV-1)
  neutralization IC80: > 50 µg/mL
HT593.1 (HIV-1)
  neutralization IC80: 13.7 µg/mL
CNE12 (HIV-1)
  neutralization IC80: > 50 µg/mL
REJO.67 (HIV-1)
  neutralization IC80: 0.4 µg/mL
[17]
  neutralization IC80: > 50 µg/mL
DJ263.8 (HIV-1)
  neutralization IC80: 1.11 µg/mL
T257-31 (HIV-1)
  neutralization IC80: 0.021 µg/mL
CH038.12 (HIV-1)
  neutralization IC80: > 50 µg/mL
SF162.LS (HIV-1)
  neutralization IC80: > 50 µg/mL
HXB2.DG (HIV-1)
  neutralization IC80: > 50 µg/mL
[18]
  neutralization IC80: > 50 µg/mL
[19]
  EC50: 15.1 µg/mL
Monomeric gp120
  fold weaker affinity for monomeric gp120 than for the viral spike: > 100 fold
